One experiment concerns CD133+ HT29-R cells. The experiment can be described thus: Binding of CSANs to CD133+ HT29-R cells by flow cytometry. As to conditions: fluorescein-labeled CSANs. Here is the method:
The Bangs beads (Bangs Laboratories, Cat: 815A) were collected and resuspended in PBS, and then stained with the fluorescently labeled antibody that detects the corresponding cell surface receptor (anti-EGFR-BV421, Biolegend, Cat: 352911; anti-HER2-BV421, Biolegend, Cat: 324420; anti-EpCAM-AF647, Biolegend, Cat: 118211) at 4° C. for >30 min, followed by wash steps. 100,000 of the cancer cells were collected and stained with the corresponding antibody at 4° C. for >30 min, followed by wash steps. The cells and beads were analyzed by flow cytometry. The calibration curve was generated based on the MFI of the beads and the corresponding antibody binding capacity of the beads. The receptor number was calculated based on the MFI of the cells stained with the antibody and the previously generated calibration curve. […]
The binding specificity of the CSANs to the corresponding cellular receptors was studied by flow cytometry. […] The cells were then pelleted, washed, and resuspended in 0.5 mL of cold DPBS and analyzed using an LSR II flow cytometer (BD Biosciences) at the University Flow Cytometry Resource (UFCR). […] The modified cells were then resuspended in 0.5 mL of cold DPBS and analyzed using an LSR II flow cytometer (BD Biosciences) at the University Flow Cytometry Resource (UFCR).
On the technique in general: In flow cytometry, cells or beads pass a laser one at a time.

The target of experiment [1] is T1, epithelial cell adhesion molecule (EpCAM) on HT29-R cells (human, UniProt P16422 24-314).
T1 construct: whole, on cells
T1 sequence (looked up): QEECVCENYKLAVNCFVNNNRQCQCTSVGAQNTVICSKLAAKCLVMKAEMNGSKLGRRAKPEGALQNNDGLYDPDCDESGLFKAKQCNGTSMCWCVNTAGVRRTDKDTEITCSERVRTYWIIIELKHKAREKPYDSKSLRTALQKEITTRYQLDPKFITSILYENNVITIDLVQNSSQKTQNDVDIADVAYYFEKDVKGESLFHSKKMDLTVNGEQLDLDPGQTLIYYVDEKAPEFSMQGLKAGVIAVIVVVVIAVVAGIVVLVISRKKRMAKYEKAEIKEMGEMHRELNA
The experiment can be described thus: flow cytometry, 0.5 µM fluorescein-labeled CSANs on HT29-R (EpCAM+) cells, 1 h at 4° C. Here is the method:
(§1) The binding specificity of the CSANs to the corresponding cellular receptors was studied by flow cytometry. A431-R cells were chosen as the EGFR⁺ cell line; SK-BR-3-R cells were chosen as the HER2⁺ cell line; HT-29-R cells were chosen as the EpCAM⁺ cell line; HT29-R cells were chosen as the CD133⁺ cell line. The cells were harvested and washed with DPBS buffer (Gibco, Cat: 14190144), and aliquots of […] were then resuspended in 100 μL of DPBS solutions containing 0.5 μM of fluorescein-labeled CSANs and incubated for 1 h at 4° C. The cells were then pelleted, washed, and resuspended in 0.5 mL of cold DPBS and analyzed using an LSR II flow cytometer (BD Biosciences) at the University Flow Cytometry Resource (UFCR). For the cell surface modification with farnesylated CSANs, the sender cells were collected from cell culture, pelleted at 350 g for 5 min, and washed with 1 mL DPBS. Aliquots of 10⁵ cells were then incubated in 100 μL of DPBS solutions containing the desired concentrations of fluorescein-labeled farnesylated CSANs for at least 1 h at room temperature with rotation and washed twice with 1 mL cold DPBS to remove unbound CSANs. The modified cells were then resuspended in 0.5 mL of cold DPBS and analyzed using an LSR II flow cytometer (BD Biosciences) at the University Flow Cytometry Resource (UFCR).

For experiment [2], the target named is T2, human epidermal growth factor receptor 2 (HER2) on SK-BR-3-R cells (human, UniProt P04626 23-1255).
T2 construct: whole, on cells
The experiment can be described thus: flow cytometry, fluorescein-labeled CSANs on SK-BR-3-R cells, 1 h at 4° C. Here is the method: as §1

Experiment [3] concerns the target T3, epidermal growth factor receptor (EGFR) on A431-R / MDA-MB-231-R cells (human, UniProt P00533 25-1210).
T3 construct: whole, on cells
The experiment can be described thus: flow cytometry, fluorescein-labeled CSANs on A431-R cells, 1 h at 4° C. On the procedure: as §1

For experiment [4], the target named is T1, epithelial cell adhesion molecule …. The experiment can be described thus: flow cytometry, fluorescein-labeled CSANs on HT29-R cells, 1 h at 4° C. On the procedure:
as §1

In experiment [5] the test system is receptor expressing target cells (A431-R, SK-BR-3-R, HT29-R). The experiment can be described thus: Binding specificity of CSANs to cellular receptors by flow cytometry. Conditions: unfarnesylated fluorescein-labeled CSANs, 0.5 μM, 1 h, 4° C. Here is the method:
as §1, with “EGFR^+” for “EGFR⁺”, “HER2^+” for “HER2⁺”, “EpCAM^+” for “EpCAM⁺”, “CD133^+” for “CD133⁺”, “10^5” for “10⁵”

B1: αCD133-scFv-DHFR^2 CSANs: fluorescein-labeled CSANs from αCD133-scFv-DHFR^2 protein (protein)
chain: MDIVLSQSPAIMSASPGEKVTISCSASSSVSYMYWYQQKPGSSPKPWIYRTSNLASGVPARFSGSGSGTSYSLTISSMEAEDAATYYCQQYHSYPPTFGAGTKLELKSSGGGGSGGGGGGSSRSSLEVKLVESGPELKKPGETVKISCKASGYTFTDYSMHWVNQAPGKGLKWMGWINTETGEPSYADDFKGRFAFSLETSASTAYLQINNLKNEDTATYFCATDYGDYFDYWGQGTTLTVSSELGGSGGGSGGGSGGMISLIAALAVDRVIGMENAMPWNLPADLAWFKRNTLNKPVIMGRHTWESIGRPLPGRKNIILSSQPGTDDRVTWVKSVDEAIAAAGDVPEIMVIGGGRVYEQFLPKAQKLYLTHIDAEVEGDTHFPDYEPDDWESVFSEFHDADAQNSHSYSFEILERRGMISLIAALAVDRVIGMENAMPWNLPADLAWFKRNTLNKPVIMGRHTWESIGRPLPGRKNIILSSQPGTDDRVTWVKSVDEAIAAAGDVPEIMVIGGGRVYEQFLPKAQKLYLTHIDAEVEGDTHFPDYEPDDWESVFSEFHDADAQNSHSYSFEILERRGGSGGGSGGGSGGDYKDDDDK
As to B1, the “binding to HT29-R cells” value in the experiment on CD133+ HT29-R cells is “specifically bind”.

B2: unfarnesylated αEpCAM-Fn3 CSANs (αEpCAM-Fn3-DHFR^2-CVIA oligomerized by bisMTX) (designed binder)
chain: MDYKDDDDKASSSDSPRNLEVTNATPNSLTISWDNSNYASYYRITYGETGGNSPSQELTVPGSTYNATISGLKPGQDYIITVYAVTYRDNYSYSNLISINYRSEIDKPSQGSGGSGGGGSGGGGSGGGGSGGGGSGGGGSGGGGSGGGGSGGGGSGGELGGISLIAALAVDRVIGMENAMPWNLPADLAWFKRNTLNKPVIMGRHTWESIGRPLPGRKNIILSSQPGTDDRVTWVKSVDEAIAAAGDVPEIMVIGGGRVYEQFLPKAQKLYLTHIDAEVEGDTHFPDYEPDDWESVFSEFHDADAQNSHSYSFEILERRGGISLIAALAVDRVIGMENAMPWNLPADLAWFKRNTLNKPVIMGRHTWESIGRPLPGRKNIILSSQPGTDDRVTWVKSVDEAIAAAGDVPEIMVIGGGRVYEQFLPKAQKLYLTHIDAEVEGDTHFPDYEPDDWESVFSEFHDADAQNSHSYSFEILERRGGSGGGSGGHHHHHHGGSGGSGGKKKKKKTCVIA
modifications: Non-specific NHS-fluorescein label on amines; monomers joined non-covalently into a predominantly octameric ring by bisMTX; the letters give one monomer.
notes: Fn3-DHFR^2 fusion nanoring formed with bisMTX; 'predominantly octameric'; also called anti-EpCAM-C5-Fn-1DD-CVIA
For B2, the binding result in experiment [1] is listed as “binds”.

B3: non-targeting DHFR^2-CVIA CSANs (other)
chain: GISLIAALAVDRVIGMENAMPWNLPADLAWFKRNTLNKPVIMGRHTWESIGRPLPGRKNIILSSQPGTDDRVTWVKSVDEAIAAAGDVPEIMVIGGGRVYEQFLPKAQKLYLTHIDAEVEGDTHFPDYEPDDWESVFSEFHDADAQNSHSYSFEILERRGGISLIAALAVDRVIGMENAMPWNLPADLAWFKRNTLNKPVIMGRHTWESIGRPLPGRKNIILSSQPGTDDRVTWVKSVDEAIAAAGDVPEIMVIGGGRVYEQFLPKAQKLYLTHIDAEVEGDTHFPDYEPDDWESVFSEFHDADAQNSHSYSFEILERRGGSGGSGGDYKDDDDKGGSGGSGGKKKKKKTCVIA
modifications: Non-specific NHS-fluorescein label on amines; monomers joined non-covalently into a predominantly octameric ring by bisMTX; the letters give one monomer.
notes: Control nanoring without targeting domain, unfarnesylated; 'predominantly octameric'
Regarding B3, the binding result in experiment [2], in experiment [3] and in experiment [4] was “no binding (tested: 0.5 µM)” each time.

B4: DHFR^2-CVIA CSANs: non-targeting unfarnesylated control CSANs from DHFR^2-CVIA protein (protein)
chain: B3 chain
Regarding B4, in experiment [5], the “binding to receptor expressing target cells” value is recorded as “no observable binding”.
